In article PMC11398566:
Each block holds one molecule with its values, some of them ahead of it.

Key:
[1] = target: Gα13 (GNA13, full-length, from the cDNA resource center) (UniProt Q14344)
[2] = target: Gα13 (GNA13, full-length, from the cDNA resource center) (UniProt Q14344); remark: listed apart in the source
[3] = target: Gα13 (GNA13, full-length, from the cDNA resource center) (UniProt Q14344); remark: listed apart in the source
[4] = target: Gα12 (GNA12, full-length, from the cDNA resource center) (UniProt Q03113)
[5] = target: Gα12 (GNA12, full-length, from the cDNA resource center) (UniProt Q03113); remark: listed apart in the source
[6] = target: Gα12 (GNA12, full-length, from the cDNA resource center) (UniProt Q03113); remark: listed apart in the source

Sequence of UniProt Q03113 (Q03113 whole entry): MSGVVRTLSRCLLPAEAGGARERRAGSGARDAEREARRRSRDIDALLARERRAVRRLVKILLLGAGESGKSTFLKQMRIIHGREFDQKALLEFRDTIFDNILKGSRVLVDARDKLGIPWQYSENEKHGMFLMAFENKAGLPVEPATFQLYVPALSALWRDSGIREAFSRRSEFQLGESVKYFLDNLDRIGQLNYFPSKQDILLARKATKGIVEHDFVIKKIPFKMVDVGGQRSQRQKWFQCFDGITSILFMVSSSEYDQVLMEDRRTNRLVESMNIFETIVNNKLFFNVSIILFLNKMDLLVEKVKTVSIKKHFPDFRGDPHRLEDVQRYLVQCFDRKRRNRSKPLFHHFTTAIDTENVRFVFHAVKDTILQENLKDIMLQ
Sequence of UniProt Q14344 (Q14344 whole entry): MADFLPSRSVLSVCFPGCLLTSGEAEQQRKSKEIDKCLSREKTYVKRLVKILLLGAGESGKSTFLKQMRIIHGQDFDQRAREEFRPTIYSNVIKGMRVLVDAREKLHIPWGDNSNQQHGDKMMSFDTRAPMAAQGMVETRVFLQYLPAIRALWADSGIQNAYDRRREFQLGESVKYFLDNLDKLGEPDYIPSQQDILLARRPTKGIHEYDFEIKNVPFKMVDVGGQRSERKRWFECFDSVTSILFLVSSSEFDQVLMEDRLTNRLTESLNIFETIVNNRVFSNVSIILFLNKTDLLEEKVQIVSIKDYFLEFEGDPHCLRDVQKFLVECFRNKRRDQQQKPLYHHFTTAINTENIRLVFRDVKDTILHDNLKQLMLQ

ebBRET between PDZ-RhoGEF-RlucII and rGFP-CAAX (recruitment to the plasma membrane), ΔGα12/13 cells with Gα13, constitutive, GPR56-WT DNA up to 250 ng; no increase without Gα13 [1]: 0.44 BRET ratio
ebBRET between PDZ-RhoGEF-RlucII and rGFP-CAAX, ΔGα12/13 cells with Gα13 and GPR56-WT, time course after 20 nM 10C7, maximal ΔBRET after 24 min [2]: 0.7 ΔBRET
ebBRET between PDZ-RhoGEF-RlucII and rGFP-CAAX, ΔGα12/13 cells with Gα13 and GPR56-T383A, time course after 20 nM 10C7, ΔBRET max [3]: 0.5 ΔBRET
Molecule: PDZ-RhoGEF-RlucII (Gα12/13 binding domain of human PDZ-RhoGEF, residues 281–483) (from UniProt O15085 281-483) (domain or fragment)

ebBRET between p115-RhoGEF-RlucII and rGFP-CAAX (recruitment to the plasma membrane), ΔGα12/13 cells with Gα12, constitutive, GPR56-WT DNA up to 250 ng; no increase without Gα12 [4]: 0.44 BRET ratio
ebBRET between p115-RhoGEF-RlucII and rGFP-CAAX, ΔGα12/13 cells with Gα12, constitutive, increasing GPR56-T383A DNA, maximum [4]: 0.228 BRET ratio
ebBRET between p115-RhoGEF-RlucII and rGFP-CAAX, ΔGα12/13 cells with Gα12 and GPR56-WT, time course after 20 nM 10C7, maximum ΔBRET at 8 min [5]: 0.19 ΔBRET
ebBRET between p115-RhoGEF-RlucII and rGFP-CAAX, ΔGα12/13 cells with Gα12 and GPR56-T383A, time course after 20 nM 10C7, ΔBRET max [6]: 0.2 ΔBRET
B1: p115-RhoGEF-RlucII (Gα12/13 binding domain of human p115-RhoGEF, residues 1–244) (domain or fragment)
chain: MEDFARGAASPGPSRPGLVPVSIIGAEDEDFENELETNSEEQNSQFQSLEQVKRRPAHLMALLQHVALQFEPGPLLCCLHADMLGSLGPKEAKKAFLDFYHSFLEKTAVLRVPVPPNVAFELDRTRADLISEDVQRRFVQEVVQSQQVAVGRQLEDFRSKRLMGMTPWEQELAQLEAWVGRDRASYEARERHVAERLLMHLEEMQHTISTDEEKSAAVVNAIGLYMRHLGVRTKSGDKKSGRNF
